Measurements reported in article PMC4899218 (Molecular microbiology, 2016).

Tests used:
[1] = biological target: EDTA monooxygenase (EmoA) from Chelativorans sp. BNC1 (Chelativorans sp. BNC1); test: SEC-MALS
EmoA = EmoA (EDTA-degrading bacterium BNC1, UniProt Q9F9T3); test: ITC; format: binding

Row | stoichiometry N [1] | Kd (EmoA) [nM] | Compound
1 | 2 | – | EDTA monooxygenase (EmoA) from Chelativorans sp. BNC1 (enzyme)
2 | – | 330 | Cc1cc2nc3c(=O)[nH]c(=O)nc-3n(C[C@H](O)[C@H](O)[C@H](O)COP(=O)(O)O)c2cc1C [FMN]
